Assay in all cases: ELISA
(In general: An ELISA detects its analyte on a solid surface through an enzyme-linked reagent.)

Test [1] addresses recombinant EBOV Kikwit 1995 NP (Zaire ebolavirus (EBOV) Kikwit 1995, UniProt O72142 1-739).
The target of test [2] is nluc-NP612 fusion protein, EBOV (Zaire ebolavirus (EBOV), UniProt O72142 612-739).
In test [3] the target is nluc-NP612 fusion protein, SUDV (Sudan ebolavirus (SUDV), UniProt Q9QP77 612-738).
Test [4] deals with recombinant SUDV Boniface 1976 NP (Sudan ebolavirus (SUDV) Boniface 1976, UniProt Q9QP77 1-738).

B1: sdAb ZC-gluc fusion (glucibody) (VHH)
VHH: KVQLQQSGGGSVTPGGSLRLSCAASGSISDFAAMAWYRQAPGKERDWVGTIFSAGALLYAEPVKGRFTISRDNAKNTVYLQMNSLKPEDTAVYYCRLYAEAIYWGQGTQVTVSS
A word on the EC50: it is the concentration at which the effect is half-maximal. With B1, the EC50 in test [1] amounted to 0.013 µM.

B2: sdAb ZC, biotinylated (from pecan126) (VHH)
VHH: KVQLQQSGGGSVTPGGSLRLSCAASGSISDFAAMAWYRQAPGKERDWVGTIFSAGALLYAEPVKGRFTISRDNAKNTVYLQMNSLKPEDTAVYYCRLYAEAIYWGQGTQVTVSS
modifications: biotin (singly biotinylated)
Turning to B2, the half-maximal effective concentration (EC50) in test [2] came out at 0.186 µM.

B3: sdAb ZE-gluc fusion (glucibody) (VHH)
VHH: QVQLQESGGGLVQPGGSLRLSCTASGFTLAEYGVGWFRQAPGKERELVALIAVGGTTHSIDSVKGRFTISRDNMKNTVYLQMNSLNVEDTAVYYCNAYSSAYDRNYWGQGTQVTVSS
For the molecule B3, the 50% effective concentration (EC50) in test [1] was 0.031 µM.

B4: sdAb ZE, biotinylated (from pecan126) (VHH)
VHH: QVQLQESGGGLVQPGGSLRLSCTASGFTLAEYGVGWFRQAPGKERELVALIAVGGTTHSIDSVKGRFTISRDNMKNTVYLQMNSLNVEDTAVYYCNAYSSAYDRNYWGQGTQVTVSS
modifications: biotin (singly biotinylated)
Molecule B4 registered an EC50 in test [2] of 1.03 µM.

B5: sdAb SB, biotinylated (from pecan126) (VHH)
VHH: QVKLQQSGGGSVQEGGSLRLSCASSGAFFRAGPMGWYRRAPGNERELVAGISRNGRTIYAPSLKDRFTISRDDDNNILYLQMSDLTPGDTAVYYCNLNVRTAVAGRNDYWGQGTQVTVSS
modifications: biotin (singly biotinylated)
In the case of B5, a half-maximal response in test [3] (EC50) required 0.635 µM.

B6: sdAb SB-gluc fusion (glucibody) (VHH)
VHH: QVKLQQSGGGSVQEGGSLRLSCASSGAFFRAGPMGWYRRAPGNERELVAGISRNGRTIYAPSLKDRFTISRDDDNNILYLQMSDLTPGDTAVYYCNLNVRTAVAGRNDYWGQGTQVTVSS
Turning to B6, the EC50 in test [4] worked out at 0.037 µM.

The record behind these values is publication PMC6990103 (2019).
